The source of these data is patent publication US20230133381A1.

The Kd is the equilibrium constant for the complex coming apart. Low readings indicate higher affinity, high ones lower affinity. The koff is the rate constant with which the complex falls apart. Higher therefore signals a short-lived complex. Usually kon stands for the second-order rate constant of association. In general, EC50 (read off the curve) refers to the concentration that produces a half-maximal response. Lower therefore signals higher potency in that assay.

B1: D0 (antibody, V domains shown)
VH: AVTLDESGGGLQTPGGGLSLVCKGSGFTFSSFNMLWVRQAPGKGLEWVAGIGKSDRYTGYGSAVKGRATISRDDGQSTVRLQLNNLRAEDTGTYYCVKDAGSGCGSGGWTGACIDTWGHGTEVIVSS
VL: LTQPSSVSANLGGTVEITCSGGDSYAGSYYYGWYQQKAPGSAPVTVIYNNNNRPSNIPSRFSGSTSGSTATLTITGVQAEDEAVYFCGSRDSSYVGIFGAGTTLTVL
B2: DA26 (antibody, V domains shown)
VH: B1 VH with R80Y, L83M, N85S
VL: B1 VL with V84T, F86Y
B3: DA29 (antibody, V domains shown)
VH: B1 VH with V79A
VL: B1 VL with V84T
B4: DA30 (antibody, V domains shown)
VH: B1 VH with V79A, R80Y, L83M, N85S
VL: B1 VL with V84T, F86Y
B5: DA31 (antibody, V domains shown)
VH: B1 VH with V79A, L83M, N85S
VL: B1 VL with V84T
B6: DA33 (antibody, V domains shown)
VH: B1 VH with V79A, G92A, T93V
VL: B1 VL with V84T
B7: DA34 (antibody, V domains shown)
VH: B1 VH with V79A, R80Y, L83M, N85S, G92A, T93V
VL: B1 VL with V84T, F86Y
B8: DA28 (antibody, V domains shown)
VH: B1 VH with V79A
VL: B1 VL
B9: DA8 (antibody, V domains shown)
VH: EVQLVESGGGLVQPGGSLRLSCAASGFTFSSFNMLWVRQAPGKGLEWVAGIGKSDRYTGYGSAVKGRFTISRDDSKSTVYLQMNSLRAEDTAVYYCVRDAGSGCGSGGWTGACIDTWGQGTLVTVSS
VL: DIQMTQSPSSLSASVGDRVTITCSGGDSYAGSYYYGWYQQKPGKAPKTLIYNNNNRPSGVPSRFSGSGSGTDFTLTISSLQPEDFATYYCGSRDSSYVGIFGQGTKVEIK
B10: DA18 (antibody, V domains shown)
VH: B9 VH
VL: B9 VL with G68R, S96D, Y97G, V98G, I100R
B11: DA15 (antibody, V domains shown)
VH: B9 VH with D74T, S77N, V79A, V97S
VL: B9 VL with G68R, S96D, Y97G, V98G, I100R
B12: DA22 (antibody, V domains shown)
VH: B9 VH with G103P
VL: B9 VL with G68T
B13: DA9 (antibody, V domains shown)
VH: B9 VH with V79L
VL: B9 VL with G68R
B14: DA17 (antibody, V domains shown)
VH: B9 VH
VL: B9 VL with R56K, P57A, S58K, G68R
B15: DA5 (antibody, V domains shown)
VH: B9 VH with V79A
VL: B9 VL with G68T
B16: DA23 (antibody, V domains shown)
VH: B9 VH with G103P, S106K
VL: B9 VL with G68T

Residue numbers refer to the chain shown, from its start.

In the first experiment the target is human DR5 (human). As to the kind of experiment: TRAIL competitive ELISA: human DR5 coated on the plate (0.1 ug/ml), TRAIL titrated against the binding of control antibody AP, bound AP detected with anti-human Fc-HRP, ABTS, absorbance at 405 nm.
For the molecule “TRAIL protein (from UniProt P50591 114-281) (ligand)”, the IC50 (read off the curve) was determined as 5000 pM.

The target in the next experiment is human DR5 (human). As to the kind of experiment: SPR (BIAcore X100), human DR5 on CM5 chip, IgG injected, 1:1 Langmuir model.
B1 showed a Kd of 15.2 pM, a koff of 2.26e-05 s⁻¹ and a kon of 1.49e+06 M⁻¹ s⁻¹.

For B2, the Kd stood at 1.01 pM, the koff was 1.1e-06 s⁻¹ and the kon was 1.09e+06 M⁻¹ s⁻¹.

Molecule B3 came in with a Kd of 69.8 pM, a koff of 8.47e-05 s⁻¹ and a kon of 1.21e+06 M⁻¹ s⁻¹.

B4: the Kd turned out to be 77.4 pM, the koff is 7.97e-05 s⁻¹ and the kon amounted to 1.03e+06 M⁻¹ s⁻¹.

Molecule B5 returned a Kd of 70.6 pM, a koff of 8.79e-05 s⁻¹ and a kon of 1.24e+06 M⁻¹ s⁻¹.

In the case of B6, the Kd came to 78.8 pM, the koff is 9.77e-05 s⁻¹ and the kon stood at 1.24e+06 M⁻¹ s⁻¹.

On to B7, for which the Kd was 94.2 pM, the koff stood at 9.5e-05 s⁻¹ and the kon is 1e+06 M⁻¹ s⁻¹.

B8 registered a Kd of 3.89 pM, a koff of 4.52e-06 s⁻¹ and a kon of 1.16e+06 M⁻¹ s⁻¹.

For the molecule B9, the Kd is under 6.25 pM, the koff was under 1e-05 s⁻¹ and the kon came out at 1.6e+06 M⁻¹ s⁻¹.

B10: the Kd amounted to 27.7 pM, the koff stood at 3.67e-05 s⁻¹ and the kon amounted to 1.33e+06 M⁻¹ s⁻¹.

B11: the equilibrium dissociation constant (Kd) amounted to 1.09 pM, the off-rate (koff) came out at 2.78e-06 s⁻¹ and the kon turned out to be 2.56e+06 M⁻¹ s⁻¹.

B12 had an equilibrium dissociation constant (Kd) of 34.2 pM, a koff of 3.19e-05 s⁻¹ and a kon of 932000 M⁻¹ s⁻¹.

The molecule B13 registered a Kd of 0.071 pM, a koff of 4e-07 s⁻¹ and a kon of 5.6e+06 M⁻¹ s⁻¹.

The molecule B14 displayed a Kd of 23.5 pM, a koff of 5.97e-05 s⁻¹ and a kon of 2.54e+06 M⁻¹ s⁻¹.

B15 yielded a Kd of under 8.33 pM, a koff of under 1e-05 s⁻¹ and a kon of 1.2e+06 M⁻¹ s⁻¹.

In turn, B16 had a Kd of 40.3 pM, a koff of 2.8e-05 s⁻¹ and a kon of 696000 M⁻¹ s⁻¹.

The target of a further experiment is human DR5 (human). Nature of the experiment: ELISA: human DR5 coated on the plate (10 ng/ml), antibody titrated, anti-human Fc-HRP, TMB, absorbance at 450 nm. On the technique in general: An ELISA detects its analyte on a solid surface through an enzyme-linked reagent.
B1 yielded an EC50 (read off the curve) of 0.006 µg/mL.

The molecule B2 showed an EC50 (read off the curve) of 0.02 µg/mL.

The molecule B3 yielded an EC50 (read off the curve) of 0.01 µg/mL.

Take B4: the EC50 (read off the curve) stood at 0.02 µg/mL.

In the case of B5, the EC50 (read off the curve) came out at 0.02 µg/mL.

B6 displayed an EC50 (read off the curve) of 0.02 µg/mL.

Take B8: the EC50 (read off the curve) amounted to 0.02 µg/mL.

B9 displayed an EC50 (read off the curve) of 0.02 µg/mL.

As to B10, the EC50 (read off the curve) came to 0.03 µg/mL.

Molecule B11 gave an EC50 (read off the curve) of 0.01 µg/mL.

Turning to B12, the EC50 (read off the curve) was found to be 0.02 µg/mL.

Take B13: the EC50 (read off the curve) is 0.02 µg/mL.

B14 displayed an EC50 (read off the curve) of 0.03 µg/mL.

For the molecule B15, the EC50 (read off the curve) amounted to 0.03 µg/mL.

B16: the EC50 (read off the curve) was determined as 0.01 µg/mL.
